The target of the series is T1, RhaS-GB1201b (RhaS L201R-GB1basic) (UniProt P09377 1-278, L201R).
T1 sequence: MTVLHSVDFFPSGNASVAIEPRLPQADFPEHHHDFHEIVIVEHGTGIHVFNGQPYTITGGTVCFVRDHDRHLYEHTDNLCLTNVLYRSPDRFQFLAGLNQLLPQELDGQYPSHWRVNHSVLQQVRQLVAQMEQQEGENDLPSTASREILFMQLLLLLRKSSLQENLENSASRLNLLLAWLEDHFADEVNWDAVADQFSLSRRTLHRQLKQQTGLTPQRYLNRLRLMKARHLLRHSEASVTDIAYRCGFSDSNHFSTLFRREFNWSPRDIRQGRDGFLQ
The series is described as follows: EMSA.

B1: rhaBAD RhaS site probe (oligos 3058/3288) (dsDNA)
DNA 1: ACGTTCATCTTTCCCTGGTTGCCAATGGCCCATTTTCCTGTCAGTAACGAGAAGGTCGCGAA
DNA 2: TTCGCGACCTTCTCGTTACTGACAGGAAAATGGGCCATTGGCAACCAGGGAAAGATGAACGT
For the molecule B1, the binding result is recorded as “binds”.

The record behind these values is article PMC3663881 (Journal of biomolecular screening, 2013).
